From patent US20240092876A1 (priority 2020, published 2024)

Assays:
[1] = biological target: N2_A_Leningrad_134_17_57 (influenza A virus); assay: flow cytometry on NA-expressing cells
[2] = biological target: N2 neuraminidase from A/Washington/01/2007 (Influenza A virus A/Washington/01/2007); assay: flow cytometry on NA-expressing cells

B1: FNI19-v3 (antibody, V domains shown)
VH: QVQLVQSGAEVKKPGSSVKVSCKASEGTFNKYTISWVRQAPGQGLEWMGGIIPISGIANYAQKFQGRVAITADESTTTAYMELSSLRSEDSAVYYCATAVSDYFNRDLGWEDYYFPFWGQGTLVTVSS
VL: EIVMTQSPATLSVSPGARATLFCRASRSVSDNLAWYQQKPGQAPRLLIFGASTRATGVPARFSGSGSGTQFTLTISSLQSEDFAVYYCQHYNIWPPWTFGQGTKVEIK
In the case of B1, the MFI normalized vs wt [1] is reported as 1.04 and the MFI normalized vs wt [2] is reported as 0.83.
